{
  "source": "paper PMC6513997",
  "about": "“PFA ependymoma-associated protein EZHIP inhibits PRC2 activity through a H3 K27M-like mechanism” (Nature Communications, 2019)",
  "key": {"[1]": {"target": "recombinant PRC2 purified from SF9 cells (EZH2, SUZ12, EED, RBBP4) (human, UniProt Q15910 1-746; Q15022 1-739; O75530 1-441; Q09028 1-425)", "sequence (Q15910 whole entry, chain 1 of 4)": "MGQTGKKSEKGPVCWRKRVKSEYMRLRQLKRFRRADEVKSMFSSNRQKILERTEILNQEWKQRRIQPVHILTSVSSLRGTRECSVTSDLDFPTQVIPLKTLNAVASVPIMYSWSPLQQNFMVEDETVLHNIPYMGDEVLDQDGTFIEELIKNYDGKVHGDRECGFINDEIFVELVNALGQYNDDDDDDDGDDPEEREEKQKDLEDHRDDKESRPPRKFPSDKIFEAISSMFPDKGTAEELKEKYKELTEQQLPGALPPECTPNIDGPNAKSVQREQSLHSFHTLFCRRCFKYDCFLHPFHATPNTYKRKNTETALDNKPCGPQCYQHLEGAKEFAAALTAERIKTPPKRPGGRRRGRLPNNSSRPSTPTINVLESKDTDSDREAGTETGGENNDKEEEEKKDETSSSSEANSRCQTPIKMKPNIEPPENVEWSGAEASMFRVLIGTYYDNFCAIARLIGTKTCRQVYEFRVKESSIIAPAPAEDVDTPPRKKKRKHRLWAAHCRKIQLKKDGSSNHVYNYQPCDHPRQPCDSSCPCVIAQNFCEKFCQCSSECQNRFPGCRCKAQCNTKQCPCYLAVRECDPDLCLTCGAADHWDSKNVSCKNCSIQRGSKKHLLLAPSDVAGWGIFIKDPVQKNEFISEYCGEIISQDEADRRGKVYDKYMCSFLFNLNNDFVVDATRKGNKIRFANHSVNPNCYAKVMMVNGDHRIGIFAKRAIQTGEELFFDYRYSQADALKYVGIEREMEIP", "sequence (Q15022 whole entry, chain 2 of 4)": "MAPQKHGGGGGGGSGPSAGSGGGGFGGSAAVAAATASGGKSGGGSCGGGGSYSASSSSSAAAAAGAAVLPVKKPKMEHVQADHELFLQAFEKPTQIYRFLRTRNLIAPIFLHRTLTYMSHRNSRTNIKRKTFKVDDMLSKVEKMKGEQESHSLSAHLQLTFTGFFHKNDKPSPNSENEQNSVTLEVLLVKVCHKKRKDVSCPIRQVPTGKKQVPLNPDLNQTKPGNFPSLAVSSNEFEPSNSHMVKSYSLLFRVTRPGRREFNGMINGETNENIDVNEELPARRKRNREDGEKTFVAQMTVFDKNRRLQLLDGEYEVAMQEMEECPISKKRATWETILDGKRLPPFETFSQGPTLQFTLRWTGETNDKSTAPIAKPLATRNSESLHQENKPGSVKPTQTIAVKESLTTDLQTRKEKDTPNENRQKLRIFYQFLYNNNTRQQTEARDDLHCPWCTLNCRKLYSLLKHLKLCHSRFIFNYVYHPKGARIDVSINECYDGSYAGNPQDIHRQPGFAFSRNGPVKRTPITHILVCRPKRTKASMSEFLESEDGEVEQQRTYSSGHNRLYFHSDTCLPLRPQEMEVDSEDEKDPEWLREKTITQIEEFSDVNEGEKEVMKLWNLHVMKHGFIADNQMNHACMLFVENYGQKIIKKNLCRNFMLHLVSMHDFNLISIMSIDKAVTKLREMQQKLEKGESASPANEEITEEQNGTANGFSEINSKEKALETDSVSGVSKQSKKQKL", "sequence (O75530 whole entry, chain 3 of 4)": "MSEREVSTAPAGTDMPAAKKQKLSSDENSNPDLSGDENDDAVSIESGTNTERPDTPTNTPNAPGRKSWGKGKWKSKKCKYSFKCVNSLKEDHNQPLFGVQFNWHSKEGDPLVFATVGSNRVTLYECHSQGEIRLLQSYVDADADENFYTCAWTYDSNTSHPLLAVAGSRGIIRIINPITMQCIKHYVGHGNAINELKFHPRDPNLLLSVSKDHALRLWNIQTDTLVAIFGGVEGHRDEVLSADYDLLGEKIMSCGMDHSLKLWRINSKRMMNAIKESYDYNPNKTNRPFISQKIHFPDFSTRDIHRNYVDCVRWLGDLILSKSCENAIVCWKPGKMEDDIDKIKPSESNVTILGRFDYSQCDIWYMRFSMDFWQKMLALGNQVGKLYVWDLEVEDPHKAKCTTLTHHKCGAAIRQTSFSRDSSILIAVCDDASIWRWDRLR", "sequence (Q09028 whole entry, chain 4 of 4)": "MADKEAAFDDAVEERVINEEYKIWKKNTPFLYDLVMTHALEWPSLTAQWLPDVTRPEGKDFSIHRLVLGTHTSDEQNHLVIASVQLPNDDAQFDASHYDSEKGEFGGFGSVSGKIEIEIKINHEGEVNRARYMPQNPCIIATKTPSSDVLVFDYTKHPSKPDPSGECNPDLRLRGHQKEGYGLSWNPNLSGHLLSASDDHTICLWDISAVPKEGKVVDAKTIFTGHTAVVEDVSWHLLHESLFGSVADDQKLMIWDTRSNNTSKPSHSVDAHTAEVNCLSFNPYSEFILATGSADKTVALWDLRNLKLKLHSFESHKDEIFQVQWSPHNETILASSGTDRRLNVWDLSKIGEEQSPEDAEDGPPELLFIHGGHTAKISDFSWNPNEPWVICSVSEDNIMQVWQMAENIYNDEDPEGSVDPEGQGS", "test": "cell-based or functional assay"}, "[2]": {"target": "native PRC2 purified from HeLa cells expressing FLAG-tagged EZH2 ( | human (endogenous in HeLa), UniProt Q15910 1-746)", "sequence (Q15910 whole entry, chain 1 of 4)": "as the sequence (Q15910 whole entry, chain 1 of 4) above", "sequence (Q15022 whole entry, chain 2 of 4, further chain)": "as the sequence (Q15022 whole entry, chain 2 of 4) above", "sequence (O75530 2-441, chain 3 of 4, further chain)": "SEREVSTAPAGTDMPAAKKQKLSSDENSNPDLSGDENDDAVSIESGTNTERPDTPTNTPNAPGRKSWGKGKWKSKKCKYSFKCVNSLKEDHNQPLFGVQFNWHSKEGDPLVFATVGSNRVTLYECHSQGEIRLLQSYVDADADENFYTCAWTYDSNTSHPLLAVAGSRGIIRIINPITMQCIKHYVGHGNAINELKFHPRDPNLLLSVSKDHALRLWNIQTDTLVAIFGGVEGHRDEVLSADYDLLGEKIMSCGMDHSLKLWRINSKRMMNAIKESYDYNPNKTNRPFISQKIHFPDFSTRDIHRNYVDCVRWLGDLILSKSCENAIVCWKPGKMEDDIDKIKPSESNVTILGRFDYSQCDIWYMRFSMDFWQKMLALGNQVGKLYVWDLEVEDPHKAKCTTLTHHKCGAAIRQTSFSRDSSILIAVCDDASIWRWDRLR", "sequence (Q09028 2-425, chain 4 of 4, further chain)": "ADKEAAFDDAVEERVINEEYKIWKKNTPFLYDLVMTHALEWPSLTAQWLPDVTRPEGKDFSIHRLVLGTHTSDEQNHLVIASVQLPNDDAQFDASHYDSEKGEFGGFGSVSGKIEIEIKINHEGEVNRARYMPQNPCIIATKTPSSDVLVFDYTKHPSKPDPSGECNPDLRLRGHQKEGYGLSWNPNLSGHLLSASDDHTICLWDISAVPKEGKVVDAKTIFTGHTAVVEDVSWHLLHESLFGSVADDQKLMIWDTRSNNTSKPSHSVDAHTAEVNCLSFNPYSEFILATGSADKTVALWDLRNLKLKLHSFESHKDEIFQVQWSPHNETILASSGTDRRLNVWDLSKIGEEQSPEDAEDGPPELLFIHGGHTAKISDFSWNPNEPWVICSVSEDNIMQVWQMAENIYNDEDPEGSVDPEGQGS", "test": "steady-state enzyme kinetics (inhibition of methyltransferase activity); increasing oligonucleosome substrate with PRC2, SAM and varying EZHIP; Michaelis-Menten and Lineweaver-Burk curves fitted with competitive mode of inhibition", "details": "both partners purified"}},
  "note": "Primed or numbered codes have the meaning given here. Where no end group is shown, it is not given here. Biotin′ = not defined here",
  "data": [
    {"binder": "AVRMRASSPSPPGRFFLPIPK-{Biotin′} (not fully specified (residue 21); printed as AVRMRASSPSPPGRFFLPIPK-biotin)", "note": "[biotinylated EZHIP (403-422) peptide, K27M-like peptide]", "values": [
      {"measurement": "IC50 of PRC2 methyltransferase activity on H3 18-37 peptide, EZHIP KLP titrated, without H3K27me3 stimulatory peptide", "setting": "[1]", "result": 35, "unit": "µM"},
      {"measurement": "IC50 of rPRC2-Ezh2 methyltransferase activity on H3 (18-37) peptide substrate, KLP (403-423) peptide titrated, with H3K27me3 stimulatory peptide", "setting": "[1]", "result": 4.1, "unit": "µM"}
    ]},
    {"binder": "KQLATKAARMSAPSTGGVKKYK (not fully specified; biotin on the added C-terminal K)", "note": "[biotinylated H3.3 K27M (18-37) peptide]", "values": [
      {"measurement": "IC50 of rPRC2-Ezh2 methyltransferase activity on H3 (18-37) peptide substrate, H3 K27M (18-37) peptide titrated, with H3K27me3 stimulatory peptide", "setting": "[1]", "result": 27.9, "unit": "µM"}
    ]},
    {"binder": "recombinant EZHIP purified from SF9 cells (natural protein) MATQSDMEKEQKHQQDEGQGGLNNETALASGDACGTGNQDPAASVTTVSSQASPSGGAALSSSTAGSSAAAATSAAIFITDEASGLPIIAAVLTERHSDRQDCRSPHEVFGCVVPEGGSQAAVGPQKATGHADEHLAQTKSPGNSRRRKQPCRNQAAPAQKPPGRRLFPEPLPPSSPGFRPSSYPCSGASTSSQATQPGPALLSHASEARPATRSRITLVASALRRRASGPGPVIRGCTAQPGPAFPHRATHLDPARLSPESAPGPARRGRASVPGPARRGCDSAPGPARRGRDSAPVSAPRGRDSAPGSARRGRDSAPGPALRVRTARSDAGHRSTSTTPGTGLRSRSTQQRSALLSRRSLSGSADENPSCGTGSERLAFQSRSGSPDPEVPSRASPPVWHAVRMRASSPSPPGRFFLPIPQQWDESSSSSYASNSSSPSRSPGLSPSSPSPEFLGLRSISTPSPESLRYALMPEFYALSPVPPEEQAEIESTAHPATPPEP", "values": [
      {"measurement": "Ki", "setting": "[2]", "result": 2.22, "unit": "nM"}
    ]}
  ]
}
